B1: mouse CD47 on the surface of mouse red blood cells and CT26.CL25 cells (receptor, UniProt Q61735 19-303, looked up)
chain: QLLFSNVNSIEFTSCNETVVIPCIVRNVEAQSTEEMFVKWKLNKSYIFIYDGNKNSTTTDQNFTSAKISVSDLINGIASLKMDKRDAMVGNYTCEVTELSREGKTVIELKNRTVSWFSPNEKILIVIFPILAILLFWGKFGILTLKYKSSHTNKRIILLLVAGLVLTVIVVVGAILLIPGEKPVKNASGLGLIVISTGILILLQYNVFMTAFGMTSFTIAILITQVLGYVLALVGLCLCIMACEPVHGPLLISGLGIIALAELLGLVYMKFVASNQRTIQPPRNR
notes: whole, on cells; also called CD47 present on the surface of the CT26.CL25 cells
B2: vSIRPα labeled with Cy5.5 (receptor)
chain: EEELQIIQPDKSVLVAAGETATLRCTITSLFPVGPIQWFRGAGPGRVLIYNQRQGPFPRVTTVSDTTKRNNMDFSIRIGNITPADAGTYYCIKFRKGSPDDVEFKSGAGTELSVRAKP
modifications: Cy5.5 label (site not stated)
notes: also called Cy5.5-labeled vSIRPα

For assay [1], the target named is T1, Murine TSP-1 (7859-TH, R&D Systems) labeled with Cy5.5 (murine, UniProt P35441 19-1170, Cy5.5 label (site not stated)).
T1 construct: also called Cy5.5-labeled murine thrombospondin-1; Cy5.5 labeled TSP-1
Briefly: flow cytometry of CT26.CL25 cells after incubation with mouse RBC loaded with 5 µg labeled murine TSP-1. As for the experimental part: (§1) Each cell line, grown independently in a cell culture dish, was detached from the dish with trypsin-EDTA. The cells from each dish were then washed with DPBS, counted, and diluted to 10⁵ cells/100 μl PBS. 4 μl of the FAM-vSIRPα-siRNA/RBC resuspension (totaling 10³ RBC and 100 pmol of the vSIRPα-siRNA) was mixed, independently, with each 100 μl dilution of CT26.CL25 cells and CaCO2 cells. Each mixture was incubated for 30 minutes at room temperature (20-25° C.).
Murine TSP-1 (7859-TH, R&D Systems) labeled with Cy5.5 was tested for its ability to be transferred from RBC to CD47 present on the surface of CT26.CL25 cells. Experiments were carried out as in Example 2, except that 5 μg of Cy5.5 labeled TSP-1, rather than 500 pmol of conjugate, was incubated with the RBC.
For orientation: In flow cytometry, cells or beads pass a laser one at a time.

The target of assay [2] is B1. Briefly: flow cytometry of CT26.CL25 cells after incubation with mouse RBC loaded with 200 pmol labeled vSIRPα. As for the experimental part:
as §1
vSIRPα labeled with Cy5.5 was tested for its ability to be transferred from RBC to CD47 present on the surface of CT26.CL25 cells. Experiments were carried out as in Example 2, except that 200 pmol of the labeled vSIRPα, rather than 500 pmol of conjugate, was incubated with the RBC.

T1 sequence (P35441 19-1170 limits assumed): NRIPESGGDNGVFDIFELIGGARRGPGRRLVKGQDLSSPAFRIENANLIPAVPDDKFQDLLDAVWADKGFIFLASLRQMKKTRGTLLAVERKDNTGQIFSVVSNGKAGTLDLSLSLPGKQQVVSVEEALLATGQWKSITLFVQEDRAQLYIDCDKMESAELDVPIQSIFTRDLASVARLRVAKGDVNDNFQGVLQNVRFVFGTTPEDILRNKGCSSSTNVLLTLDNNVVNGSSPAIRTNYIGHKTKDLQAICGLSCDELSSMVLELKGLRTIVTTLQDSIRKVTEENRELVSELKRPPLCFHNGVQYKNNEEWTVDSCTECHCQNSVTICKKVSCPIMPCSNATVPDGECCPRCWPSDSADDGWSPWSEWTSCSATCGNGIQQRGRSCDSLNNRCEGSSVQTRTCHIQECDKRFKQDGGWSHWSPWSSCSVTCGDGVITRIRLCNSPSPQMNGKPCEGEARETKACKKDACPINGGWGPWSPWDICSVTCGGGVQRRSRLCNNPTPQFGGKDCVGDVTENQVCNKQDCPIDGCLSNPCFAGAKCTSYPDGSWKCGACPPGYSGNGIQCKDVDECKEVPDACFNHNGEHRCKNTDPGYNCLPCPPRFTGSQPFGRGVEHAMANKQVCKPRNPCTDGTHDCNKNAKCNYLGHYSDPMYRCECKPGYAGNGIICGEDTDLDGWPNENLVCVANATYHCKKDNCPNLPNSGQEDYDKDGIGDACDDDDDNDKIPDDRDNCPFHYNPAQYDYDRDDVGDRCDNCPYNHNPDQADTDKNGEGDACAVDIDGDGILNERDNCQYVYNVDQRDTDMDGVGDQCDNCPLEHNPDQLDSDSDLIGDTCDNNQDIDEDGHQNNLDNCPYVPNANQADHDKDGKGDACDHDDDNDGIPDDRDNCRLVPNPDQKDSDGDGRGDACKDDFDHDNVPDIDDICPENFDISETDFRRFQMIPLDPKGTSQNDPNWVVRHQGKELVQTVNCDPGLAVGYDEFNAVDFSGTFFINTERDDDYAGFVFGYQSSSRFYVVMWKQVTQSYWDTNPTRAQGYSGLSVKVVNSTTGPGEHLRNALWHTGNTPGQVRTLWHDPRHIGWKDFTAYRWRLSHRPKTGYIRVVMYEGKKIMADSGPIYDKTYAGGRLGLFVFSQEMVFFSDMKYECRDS

Consider B1, for which the binding result in assay [1] was “binds”.
On to B2, for which the binding result in assay [2] is reported as “binds”.

The record behind these values is patent US20250122508A1 (K2B THERAPEUTICS, published 2025).
